Experiment: soluble fraction after stress (log2 fold change); higher = more stays soluble; pooled small domains, quantitative proteomics
Settings: stress: 50 degC
Procedure, shortened: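 After stress at 50°C, the amount of each protein still soluble was measured. This was done on pooled custom libraries of small protein domains, using high-throughput quantitative proteomics. The figure given is a base-two log fold change and stands for aggregation propensity, with higher values meaning more protein stays in solution.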

Sequence	soluble fraction (log2)
HMMQEIKLEVINNEELRIDNYINLAGIGLSRSYIQKLIKDGVILVNGKEVKSSYKVSLGDIISVQIPDPG	0.299
HMSELDASYLGQRVRYVSGFTETDPSEGLVEFRGSNWRARAEHPPLDHSGHWVIVKVESNTLWVEEKSN	-0.22
HMNPGHAERGKEIVEVFLRNNGELSMREIAEKSNITITQARRRVNKLLDQGIVEATAPVQSRNRKYRIK	0.134
HMTKDEIIIQSIIDAAKKLMQQYGLNKTTMEDIAKEAGKGKSTLYHYFKSKEEIFDQVINQEID	-0.0722
HMSAVVAPLPGLIQNILVKVGDTVHAGQHVLTMEAMKMENEIQTNRDGIIKDIKVRIGDSVNEGDTLIIL	-0.0224
HMTDNSTTTIRNLKIEWLLEEIRNAVRTGVSVDAAVERISNNPFVKPPEDLLNEARIIFLQNAGQI	-0.166
HMNTEFDVPDVVGKTLDEAEFVLKGSNLKRGLIMPVDDPSKAPGTIVRQNPEAGAGNKIRVGDVVDLWVVG	0.168
HMEPSERYKALQSLLPDYAKRLKKKGVTRHQLFLEYRLTHPDGYARSRFGTYFQAYLALSHP	-2.27
HMNLGETIYNLRKEKKLSQGDLAEQLSVSRQSVSKWENNSAVPDLDKLVKLSTIFGVSLDELVKG	0.0247
HMFQYEKIKDYILTGLEEGTWQAGDKIPSEAELVMSLNVSRMTVNRAVRELANSGLLVRIPGAGTFVATE	-0.575
HMVINTRHTGFVVDDLERFINFYLGLGLKLISRKVESGEYIDKLVGLKGTKLEWAKLSLPDNSMIEILKYH	-0.375
HMGTHSAEQVRAAIRAIVAAEDAANPLSDARITELLAMRGIAAARRTVMKYREQLGIPSSAKRRR	-0.343
HMTLDEDYFYYTLKAKEGYYRLYKKLGVDRKIIDSLNPNLKEMGLQVGMVIRVPKSQTSDLSVKNSLLVE	-1.4
HMQVLSESDVEDIKAISGGDKAYDNLMEWAGSKLSKQDAKDYDDVLATGNKTAITFAVKALMAQYENAN	-0.299
HMNNQVTFSKFLNEVEDGRVVEVNIQGNNITGVLSDGSKFKTFSPNYPNLVEKLSEKGVSINASPL	0.1
HMKKTDFNVENYDIEELAAILNFKYVPLNQGLIRDRIKDMKQRFKNKPEYIKFFTDVEIKLVNNLNLFN	-1.24
HMVDVNLLKYYVMESGKSLTDVAAAIGVTPATLHRKMSGESDFYRKEMQDIASYLGLDRDTIDRIFF	-1.01
HMNYYDLLGIPKSATKQQIRKAYRTKAKEFHPDVNGPFNSHMHFLLLKQAYETLMDANMRHVYDMALIS	-1.35
HMTYGYFELKAKNLDSLKQFLKGIAQVESIEEENNGLKVFLKNELESEELSEKLAEAKIFVSHLAKKK	0.0782

Sequence	soluble fraction (log2)
HMIITLNIENLKRARENAGLTQTQAAQKIGVSDGTYKNYEQGKREPNGDKIVTIANAFGVTTDYLLGR	-0.334
HMNGELSQRQWQILRLIAQGLSNEQMARQLFVAPSTIKTHINHLYAKLGVRTRAEAQAIARQKLMA	-0.619
HMQELNDQQRLAILNEWNNRATNPPSLLELVRVAFPDAEGADGRSWHGKKVKEFLSTRQIKARAS	0.119
HMRLSAADLQSYLKGMDYPASRQDLIAHARGHNAPEEAVATLEQFSDRTYRSAADVSVEFGRE	0.25
HMATESYYVLKADVPAKTLVTQEMVEEIKVSKGGAPVNSIKIDNIKEKGVYTSIPLLKGDVLSASNTG	0.00692
HMPYIVNHIHLKSEDPKITADWFVKAFNFEIVSDVVRHFGDRFIVTKAEGGMTINISGVRDGEEL	-0.0655
HMPGVLEVDTGGVAAVAYVDGVEVGRVPGELQIAAGTKTLMLKADRYLDYVQSLEIDGLGKRQLLVATLQS	-0.25
HMEKIIFEISEEGKRLDLYIAERTELTRTRIQQLIKDGNINVNNKKSKPSYKVEKNDFIEMIIPDE	-0.56
HMNMSVVEKVIQQISNPGRDSLIPILQAVQEEEGFISRESVIEIGKALDLPASKIYGVATFYNQFR	-0.338
HMTHFRTDERRREILSTIEADGRVSVSEIASRFDVSPVTIRSDLNYLAIQGKLKRVRGGAVLLDH	-0.76
HMLTSAQLAEIRQAVRAGQASVVEDLLKNGASPNFRMENGDTGFTYAVRADTPQVAEALLKSGKL	-0.0678
HMDLSLQTFNELKTELTNNKITIDQFSEKINEFDITSDIFEISRELFLDDTLSLEDYLVVIENVLIN	-0.45
HMHDPLATLTPREHEVMSLMAEGRTNAAIAQALVIGTGAVEKNVTSIFQKLGLDDSGTDHRRVLAVLAWLQ	-2.14
HMLPKLAEEYAIMEIRGKGENLTAKLINKGGDSFMVRNGTVLQTGHRIDEITQTYVRAEINGMKDYLYFA	0.417
HMHSGFHSAILDVDRAVKEGKTLYEALNKYPYIFDETFRSLVRAGEASGELPSILSKLALYLEEQSK	-1.16
HMTPATVVIPKVAGQTVAEAKETLKNANFEIGEEKDESSDTVEEGRVIRTDPESGTNRKEGTKINLIVSS	-0.0325
HMEAIYKKNKNLIHTVIRDNFPFLIDTADYEDAFQEGSIGLIRAIDRFDDGLEYKFSSYAYTAIRNQIA	-0.409
HMEEAQWEFKWENTDSAEIHGPHSSSEMLKWQENSFFAKGVYVRKVGGDTTDFTDGKRIDFDLY	-0.822
HMDRRDEYHQHLLRLLLSGEIRDKDELQRRKVKLSGEYGLAGVPKNSETLALVPPDRLPEVLDILR	0.065
